Data taken from the supplement of paper PMC9112550, “Optimization of the antimicrobial peptide Bac7 by deep mutational scanning” (BMC Biology, 2022).

Test system: Escherichia coli TOP10
Experiment: shrunken log2 fold change of peptide-encoding DNA abundance (4.5 h post-induction vs induction); higher = less antimicrobial activity (less host growth inhibition)
Details: time post-induction: 4.5 h; library: site-saturation at positions 5, 18, 19, 20
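Further: peptides expressed intracellularly from a pBAD plasmid library in pooled LB shake-flask culture, induced with 0.3% L-arabinose, DNA abundance read by NGS, three biological replicates, DESeq2 with apeglm shrinkage.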

| Sequence | shrunken log2 fold change |
| --- | --- |
| RRIRHRPPRLPRPRPRPSKHPRP | -0.177 |
| RRIRARPPRLPRPRPRPIMGPRP | 0.0143 |
| RRIRDRPPRLPRPRPRPVNIPRP | 0.0452 |
| RRIRIRPPRLPRPRPRPNPNPRP | -0.556 |
| RRIRGRPPRLPRPRPRPLNFPRP | -0.0482 |
| RRIRIRPPRLPRPRPRPVALPRP | -0.278 |
| RRIRFRPPRLPRPRPRPCCVPRP | -0.189 |
| RRIRTRPPRLPRPRPRPWPCPRP | -0.0128 |
| RRIRRRPPRLPRPRPRPGEVPRP | 1.28 |
| RRIRERPPRLPRPRPRPPAQPRP | 0.0318 |
| RRIRQRPPRLPRPRPRPFCIPRP | -0.641 |
| RRIRSRPPRLPRPRPRPSDRPRP | -0.254 |
| RRIRNRPPRLPRPRPRPVCTPRP | -0.157 |
| RRIRGRPPRLPRPRPRPKATPRP | 1.52 |
| RRIRIRPPRLPRPRPRPYIIPRP | -0.403 |
| RRIRLRPPRLPRPRPRPDIWPRP | -0.137 |
| RRIRARPPRLPRPRPRPMQTPRP | 0.114 |
| RRIRPRPPRLPRPRPRPHSSPRP | -0.171 |
| RRIRTRPPRLPRPRPRPCSHPRP | 0.13 |
| RRIRCRPPRLPRPRPRPGCMPRP | 0.00195 |
| RRIRYRPPRLPRPRPRPEQMPRP | 0.195 |
| RRIRTRPPRLPRPRPRPTSWPRP | 0.139 |
| RRIRIRPPRLPRPRPRPLSEPRP | -0.0382 |
| RRIRWRPPRLPRPRPRPPHMPRP | 0.112 |
| RRIRFRPPRLPRPRPRPFHMPRP | -0.116 |

| Sequence | shrunken log2 fold change |
| --- | --- |
| RRIRGRPPRLPRPRPRPIIRPRP | 0.07 |
| RRIRGRPPRLPRPRPRPYLEPRP | 0.296 |
| RRIRLRPPRLPRPRPRPFWAPRP | 0.0214 |
| RRIRARPPRLPRPRPRPHHAPRP | 0.0775 |
| RRIRIRPPRLPRPRPRPLNCPRP | -0.0654 |
| RRIRCRPPRLPRPRPRPWFCPRP | -0.177 |
| RRIRLRPPRLPRPRPRPCCNPRP | -0.155 |
| RRIRYRPPRLPRPRPRPYMEPRP | -0.0102 |
| RRIRARPPRLPRPRPRPIQCPRP | 0.00559 |
| RRIRARPPRLPRPRPRPAWRPRP | 0.649 |
| RRIRCRPPRLPRPRPRPTIKPRP | -0.364 |
| RRIRIRPPRLPRPRPRPHRRPRP | -0.056 |
| RRIRQRPPRLPRPRPRPNCSPRP | -0.0334 |
| RRIRQRPPRLPRPRPRPCAPPRP | 0.226 |
| RRIRTRPPRLPRPRPRPEHIPRP | -0.223 |
| RRIRERPPRLPRPRPRPDCKPRP | 0.0476 |
| RRIRGRPPRLPRPRPRPMTLPRP | 0.509 |
| RRIRNRPPRLPRPRPRPRNVPRP | -0.3 |
| RRIRERPPRLPRPRPRPPDTPRP | -0.426 |
| RRIRYRPPRLPRPRPRPIHAPRP | -1.49 |
| RRIRTRPPRLPRPRPRPNCRPRP | -0.00739 |
| RRIRHRPPRLPRPRPRPLQIPRP | 0.0781 |
| RRIRFRPPRLPRPRPRPFLQPRP | -0.408 |
| RRIRCRPPRLPRPRPRPFMDPRP | -0.361 |
| RRIRFRPPRLPRPRPRPRDAPRP | 0.541 |

| Sequence | shrunken log2 fold change |
| --- | --- |
| RRIRQRPPRLPRPRPRPRWYPRP | -0.172 |
| RRIRVRPPRLPRPRPRPLQQPRP | -0.55 |
| RRIRKRPPRLPRPRPRPSQHPRP | 0.109 |
| RRIRWRPPRLPRPRPRPTDHPRP | -0.307 |
| RRIRQRPPRLPRPRPRPGKVPRP | -0.0155 |
| RRIRIRPPRLPRPRPRPEFPPRP | -0.0115 |
| RRIRPRPPRLPRPRPRPPAPPRP | 0.629 |
| RRIRERPPRLPRPRPRPNMQPRP | -0.664 |
| RRIRRRPPRLPRPRPRPRHRPRP | 0.178 |
| RRIRSRPPRLPRPRPRPDGCPRP | 0.0344 |
| RRIRYRPPRLPRPRPRPETHPRP | -0.863 |
| RRIRVRPPRLPRPRPRPQRDPRP | -0.171 |
| RRIRLRPPRLPRPRPRPFEIPRP | 0.0206 |
| RRIRDRPPRLPRPRPRPVHHPRP | 0.0594 |
| RRIRCRPPRLPRPRPRPMGSPRP | 0.0655 |
| RRIRARPPRLPRPRPRPFWCPRP | 0.0247 |
| RRIRERPPRLPRPRPRPIEMPRP | -0.0653 |
| RRIRPRPPRLPRPRPRPAHTPRP | -0.0311 |
| RRIRSRPPRLPRPRPRPMPWPRP | -0.039 |
| RRIRNRPPRLPRPRPRPNTFPRP | -0.332 |
| RRIRLRPPRLPRPRPRPRKSPRP | 0.376 |
| RRIRCRPPRLPRPRPRPHRDPRP | -0.3 |
| RRIRVRPPRLPRPRPRPHIQPRP | -0.528 |
| RRIRERPPRLPRPRPRPSFWPRP | 0.132 |
| RRIRVRPPRLPRPRPRPKDGPRP | 0.0237 |

| Sequence | shrunken log2 fold change |
| --- | --- |
| RRIRFRPPRLPRPRPRPCSNPRP | -0.0316 |
| RRIRIRPPRLPRPRPRPKNYPRP | -0.417 |
| RRIRLRPPRLPRPRPRPPGAPRP | 0.54 |
| RRIRPRPPRLPRPRPRPCYFPRP | -0.0997 |
| RRIRTRPPRLPRPRPRPARRPRP | 0.204 |
| RRIRPRPPRLPRPRPRPNMTPRP | -0.13 |
| RRIRFRPPRLPRPRPRPWNNPRP | -0.0242 |
| RRIRSRPPRLPRPRPRPNVKPRP | -0.332 |
| RRIRIRPPRLPRPRPRPYIHPRP | -1.3 |
| RRIRDRPPRLPRPRPRPLWDPRP | -0.0822 |
| RRIRFRPPRLPRPRPRPWRKPRP | -0.0813 |
| RRIRERPPRLPRPRPRPCLFPRP | -0.222 |
| RRIRSRPPRLPRPRPRPEARPRP | 0.292 |
| RRIRQRPPRLPRPRPRPGSGPRP | 0.135 |
| RRIRFRPPRLPRPRPRPRMDPRP | -0.0641 |
| RRIRCRPPRLPRPRPRPCKKPRP | -0.205 |
| RRIRFRPPRLPRPRPRPTWWPRP | 0.494 |
| RRIRHRPPRLPRPRPRPIELPRP | -0.0301 |
| RRIRGRPPRLPRPRPRPVMRPRP | 0.749 |
| RRIRNRPPRLPRPRPRPDQEPRP | -0.00963 |
| RRIRARPPRLPRPRPRPGFWPRP | 0.682 |
| RRIRTRPPRLPRPRPRPSMYPRP | -0.39 |
| RRIRPRPPRLPRPRPRPMKTPRP | -0.0446 |
| RRIRRRPPRLPRPRPRPMNFPRP | 0.154 |
| RRIRNRPPRLPRPRPRPVLHPRP | -0.00264 |

| Sequence | shrunken log2 fold change |
| --- | --- |
| RRIRFRPPRLPRPRPRPQVCPRP | -0.00807 |
| RRIRMRPPRLPRPRPRPDKPPRP | -0.00474 |
| RRIRCRPPRLPRPRPRPGWCPRP | -0.0717 |
| RRIRDRPPRLPRPRPRPAAYPRP | 0.174 |
| RRIRERPPRLPRPRPRPTVRPRP | -0.00266 |
| RRIRARPPRLPRPRPRPLDQPRP | 1.44 |
| RRIRSRPPRLPRPRPRPFERPRP | -0.00192 |
| RRIRPRPPRLPRPRPRPPACPRP | 0.207 |
| RRIRQRPPRLPRPRPRPQVFPRP | 0.131 |
| RRIRWRPPRLPRPRPRPRDTPRP | 0.11 |
| RRIRDRPPRLPRPRPRPKFWPRP | 0.442 |
| RRIRSRPPRLPRPRPRPRQCPRP | 0.159 |
| RRIRSRPPRLPRPRPRPYCEPRP | -0.352 |
| RRIRIRPPRLPRPRPRPKLIPRP | -0.233 |
| RRIRERPPRLPRPRPRPIVAPRP | 0.33 |
| RRIRWRPPRLPRPRPRPRFDPRP | 0.147 |
| RRIRMRPPRLPRPRPRPPLNPRP | 0.584 |
| RRIRIRPPRLPRPRPRPNALPRP | -0.245 |
| RRIRHRPPRLPRPRPRPTDLPRP | -0.154 |
| RRIRDRPPRLPRPRPRPFFEPRP | 0.219 |
| RRIRYRPPRLPRPRPRPTWDPRP | 0.114 |
| RRIRWRPPRLPRPRPRPWFVPRP | -0.168 |
| RRIRDRPPRLPRPRPRPIGFPRP | 0.0229 |
| RRIRLRPPRLPRPRPRPLNSPRP | -0.389 |
| RRIRNRPPRLPRPRPRPYAWPRP | -0.141 |

| Sequence | shrunken log2 fold change |
| --- | --- |
| RRIRIRPPRLPRPRPRPWVQPRP | -0.0105 |
| RRIRMRPPRLPRPRPRPCYMPRP | -0.605 |
| RRIRFRPPRLPRPRPRPGYLPRP | -0.0745 |
| RRIRFRPPRLPRPRPRPVLYPRP | -0.457 |
| RRIRGRPPRLPRPRPRPGEWPRP | -0.0156 |
| RRIRVRPPRLPRPRPRPPHCPRP | 0.178 |
| RRIRCRPPRLPRPRPRPPFYPRP | -0.0226 |
| RRIRYRPPRLPRPRPRPHFPPRP | -0.00195 |
| RRIRDRPPRLPRPRPRPINVPRP | 0.0039 |
| RRIRIRPPRLPRPRPRPPGYPRP | 0.0184 |
| RRIRGRPPRLPRPRPRPATNPRP | 0.766 |
| RRIRQRPPRLPRPRPRPPYHPRP | -0.208 |
| RRIRYRPPRLPRPRPRPTMTPRP | -0.859 |
| RRIRSRPPRLPRPRPRPFKQPRP | -0.468 |
| RRIRGRPPRLPRPRPRPFFTPRP | 0.215 |
| RRIRNRPPRLPRPRPRPVDWPRP | 0.218 |
| RRIRVRPPRLPRPRPRPMWDPRP | -0.101 |
| RRIRFRPPRLPRPRPRPCPPPRP | -0.131 |
| RRIRERPPRLPRPRPRPVCHPRP | -0.309 |
| RRIRMRPPRLPRPRPRPDCPPRP | 0.0739 |
| RRIRQRPPRLPRPRPRPVYQPRP | -0.022 |
| RRIRGRPPRLPRPRPRPIQSPRP | -0.0426 |
| RRIRHRPPRLPRPRPRPNVCPRP | -0.0562 |
| RRIRVRPPRLPRPRPRPACMPRP | -0.0781 |
| RRIRERPPRLPRPRPRPNIGPRP | -0.00187 |
